In US12604903B2 (priority 2019, dated 2026):

B1: TKPCQSDKDCKKFACRKPKVPKCINGFCKCVRAPKKVEPTKPCQSDKDCKKFACRKPKVPKCINGFCKCVR (protein)
chain: TKPCQSDKDCKKFACRKPKVPKCINGFCKCVRAPKKVEPTKPCQSDKDCKKFACRKPKVPKCINGFCKCVR
notes: two NCR13 monomers linked in tandem by the APKKVEP spacer peptide from MtDef5 defensin, 71 amino acids
How did the “antifungal activity against A. brassicicola (in words)” value (Alternaria brassicicola) turn out when B1 was run?
The value was “significantly more active”.

What about the “Alternaria brassicicola MIC” value (Alternaria brassicicola; in vitro growth inhibition) of the same molecule?
The value was 1.5 µM.

What about the IC50 (Alternaria brassicicola; read-out: Alternaria brassicicola IC50, in vitro growth inhibition) of the same molecule?
The IC50 was 750 nM.

And the “growth inhibition of P. capsici (in words)” value (Phytophthora capsici)?
Its value is “inhibited the growth”.

What about the “Phytophthora capsici MIC” value (Phytophthora capsici; in vitro growth inhibition) of the same molecule?
Its value is 3 µM.

And the IC50 (Phytophthora capsici; read-out: Phytophthora capsici IC50, in vitro growth inhibition)?
The IC50 was 1500 nM.
